Here are results for 26 sequences from a protein production outcome set (Wang et al. 2014).

This series in a line: label from the status in PepcDB records.
Take “MASEREQISRKVALIALIANLILMAGKVFFGLVGDSEAVFADGIHSAADVVASIAVLAVIGISNKPPDQDHPFGHGKAEVISEAIVGIILVIVSVYILIEAILSFVKGPSVPQYSALFAALISYVAKEILYRYSIKQGKKWNSKAIIAIAYDHKGDIVASLAAFIGVLLAIIGNSRGWSYLLYADAIASAIVAYLIFKISMELIRPSVGVLMEKSVDPELIEEYKAVIFQCDQVKRIDRIRAREHGHYKLLDVRLSLDHDLTIKQGHDIAREIRNEIKRQFSDVEEVLIHVNPYFEE”: the protein production entry is reported as “failed”.

Consider “MTSAFNAYTALALAIVSEVIASAFLQQSAQFTRPWPTLAMVLFYVASFYALSVAIRVIPLSIAYAIWGGVGIILTATVSFVLFRQMLDAAAFVGIGLIVSGVVIINLFSETTVH”, for which the protein production result is “failed”.

For “MKEARKRMVKRAVQEIKDGMNVNLGIGMPTLVANEIPDGVHVMLQSENGLLGIGPYPLEGTEDADLINAGKETITEVTGASYFDSAESFAMIRGGHIDLAILGGMEVSEQGDLANWMIPGKMVKGMGGAMDLVNGAKRIVVIMEHVNKHGESKVKKTCSLPLTGQKVVHRLITDLAVFDFVNGRMTLTELQDGVTIEEVYEKTEADFAVSQSVLNS”, the protein production result was “not failed”.

As for “MDSSLSQKFTLAYASLLGVGGLMGYLKRGSKISLVAGGGSAALFYYVYTELPGNPVLASSIGIVGSAALTGMMGSRYLRTRKVVPAGLVSVVSLVMTGAYLHGLIRSS”, the protein production entry is on record as “failed”.

In the case of “MSQDNYFSRMLRGEAPVPAVAGTLGGVIRAVDLEAGSLESDYVATDAFLNPVGQVQGGMLGAMLDDVTAMLVTATLEDGASCSTLNLNLSFLRPAQAGLLRGRARLERRGRNVCNVVGELSQDGKLVATATATCMVARRA”, the protein production entry was “not failed”.

Turning to “MGHHHHHHSHMAPWRKADKERHGVAIYNFQGSGAPQLSLQIGDVVRIQETCGDWYRGYLIKHKMLQGIFPKSFIHIK”, the protein production entry is on record as “failed”.

For the sequence “MSGDFDTIRDASSPDEVQLVRLLEEKIKSLQIEIENLRKELNYYKAEMEKMLSPPLIEAVVLDVLPDGRVLVRSSSGPNLVVNIASHIDQKLIKPGISVALNQRGSTILEVLPQKE”, the protein production entry is on record as “not failed”.

Regarding “MTEFTTLLQQGNAWFFIPSAILLGALHGLEPGHSKTMMAAFIIAIKGTIKQAVMLGLAATISHTAVVWLIAFGGMVISKRFTAQSAEPWLQLISAVIIISTAFWMFWRTWRGERNWLENMHGHDYEHHHHDHEHHHDHGHHHHHEHGEYQDAHARAHANDIKRRFDGREVTNWQILLFGLTGGLIPCPAAITVLLICIQLKALTLGATLVVSFSIGLALTLVTVGVGAAISVQQVAKRWSGFNTLAKRAPYFSSLLIGLVGVYMGVHGFMGIMR”, the protein production entry is reported as “failed”.

Turning to “MICTEALQRISFSSDLGQSDKAPPPVIEPSGLIRRDETLLDSSNSDFEFHISNSFDPGDSSPADEIFADGMILPFHVTAASTVPKRLYKYELPPITSSLSPSPLSPQPLPTKHSEKETNGRASGANSDSEAEKSSKSFWSFKRSSSLNCDIKKSLICSFPRLTRSNSTGSVTNSKRAMLRDVNNHRPSSRSSCCNAYQFRPQKHTGKKGEGGGSFSVIPVLNGPSTFGLGSILRHSNSKDKTKTKKKKNKK”, the protein production entry was “failed”.

“MLLRKGTVYVLVIRADLVNAMVAHARRDHPDEACGVLAGPEGSDRPERHIPMTNAERSPTFYRLDSGEQLKVWRAMEDADEVPVVIYHSHTATEAYPSRTDVKLATEPDAHYVLVSTRDPHRHELRSYRIVDGAVTEEPVNVVEQYLEHHHHHH”: the protein production entry is “failed”.

Take “MAQFPTPFGGSLDIWAITVEERAKHDQQFHSLKPISGFITGDQARNFFFQSGLPQPVLAQIWALADMNNDGRMDQVEFSIAMKLIKLKLQGYQLPSALPPVMKQQPVAISSAPPFGMGGIASMPPLTAVAPVPMGSIPVVGMSPTLVSSVPTAAVPPLANGAPPVIQPLPAFAHPAATLPK”: the protein production result is reported as “failed”.

In the case of “MPRLARSLPLLLGLGLAAWAGATDGPLPVPADGVKLEAPTTASPSIRLVIPAEEIERRALAEYRQIIDNAAREGALAPDSVPDLARIRAIVQRLVPHAPRWNPDAAHWQWEVNLIGAAQVNAFCMPGGKIAVFSGLLERFRLTDDELAMALGHEIAHALREHARARAGQREITNLGANVISQLFGFGNRGDAGFGEGAKMHLLAFSRAEETEADLIGMDIAARAGFDPRAALTLWQKMGSIGGAEQKQFLSTHPSGRSRMTVLSRHLPETLPLYADALRMPMAKLPEYRSNMQYLGAAPVDNGDEAPMRPMVQQ”, the protein production result was “failed”.

Consider “GPLGSAMRELLLSDEYAEQKRAVNRFMLLLSTLYSLDAQAFAEATESLHGRTRVYFAADEQTLLKNGNQTKPKHVPGTPYWVITNTNTGRKCSMIEHIMQSMQFPAELIEKVCGTI”, for which the protein production result is on record as “not failed”.

With “MSPNLFIHPRQMPQILLALLGKNLVEIARQFFSARDSNPFFTPAGLTRIARLGRSAVLIGKSKPVPAGKRPTGSKPVHSLPPDRVDPENHARLEVAETDRFPLVKESAPPASFFVEQSPSPAFGEEGNGACKGSGIGGRCVLCVGGRAVLYPEYRRVVEASGGKLVIYRNLPQEPGHHLPVLLDQADMVVCPLDCVNHTAFFTVKRYCRRSGKPCVLLDRSNLSTFCKGIATLAGLYTSPAPARSDQSKRRCPASPEEGQFKDYLEHHHHHH”, the protein production entry is recorded as “failed”.

Turning to “MQLPPIPDNELQRLSTLKALNILDTNAEERFDRITRLTRRIFALPICVVTLVDASRQWFKSCQGLEVTETSRDISFCGHAINHDGIFIVNDAQMDPRFHDNPLVTQSPHIRFYAGYPLTIRGEYRVGTLCLIGNEPREFSADDIETLTDLGQMVEAELLSISLNTLDPLTMISNRRGFEQLAFQSLASCRRTNSQAALVFFDLDFFKELNDSFGHRKGDQVLYDFAHLLMAAFRESDVIARLGGDEFVVLLSFVKIDAVHVAIERFQSLLEQYNQQHPQQPTLVSSIGVAHWSPELDINLEDLLDAADRAMYQDKAEHHLNKPE”, the protein production entry was “failed”.

As for “EKDTIAAEHKQEASVLLNLHRNKINYLIGETMARMTSLSIAIDRPVDIKKMQSILEKTFDSEPRFSGLYFLNAKGDVTASTTELKTKVNLADRSFFIKAKETKKTVISDSYSSRITGQPIFTICVPVLDSKRNVTDYLVAAIQIDYLKNLINLLSPDVYIEVVNQDGKMIFASGQASHAEDQKPVSGYLDDISWNMKVYPNPVTIEELSKS”, the protein production result is reported as “failed”.

“MAYGTYRGLFAPEVAGPLAKLLVLLLVGYGLYQNRHLKSLYLVLLGLLLNALVIFANGGHMPVSPTALHRAGIGEFADLLRDKGDAVHALLDEKTRLPFLGDVIPLPPLRKVVSPGDLFILLGIVGVVVEGALKGGVRLRRRALALRLLLYLAFVLALLALRG”: the protein production result is recorded as “failed”.

With “MKKQIALVALLFLGMSCFNASAQFKKFNLGKAIQAGKDAAQAISLSDADIAAMSKEYMEWMDKHNPLTKPDSEYGKRLERLTGNIKEVDGMKVNFGVYEVVDVNAFACGDGSVRICAGLMDVMTDEEVMAVIGHEIGHVIHTDSKDAMKNAYFRSAVKNAAGAASSQVAKLTDSELGAMAEALAGAQYSQKQEYEADAYGVEFCVKNNIDPYGMYKSLNKLLELSNGAPASSYMQRMFSSHPDTAKRVARAKELADKYKQLEHHHHHH”, the protein production result is given as “not failed”.

Regarding “MARSIDYGNLMHRAMRGLIQSVLEDVAEHGLPGAHHFFITFDTTHPDVAMADWLRARYPQEMTVVIQHWYENLSADDHGFSVTLNFGNQPEPLVIPFDAVRTFVDPSVEFGLRFETHEEDEEEETGGDEDPDGDDEPPRHDAQVVSLDKFRKLEHHHHHH”, the protein production entry is “failed”.

Turning to “MSAPFHSALLDALNQRVVIGDGAMGTMLQAADLTLDDFLGLEGCNEILNDTRPDVLKDIHRAYFEAGADAVETNTFGCNLPNLADYDISDRIRELAEKGTRLARDVADEMGPGRDGMGRFVLGSMGPGTKLPTLGHAPFAILRDAYAEAAMGMIDGGADAILVETCQDLLQVKAAILGSQRAMETLGSRLPIITHVTVETTGTMLLGSEIGAALTALEPLGIDMIGLNCATGPAEMSEHLRHLSKYSSLPVSVMPNAGLPQLGPNGAEYPLTAEELAEALSGFVTEFGLGLVGGCCGTTPEHIRQVAEAVRLVEKAERNPVHESGTSSLYTAVPFQQDASILMIGERTNTNGSKAF”, the protein production entry is recorded as “failed”.

With “MEPAGPCGFCPAGEVQPARYTCPRCNAPYCSLRCYRTHGTCAENFY”, the protein production entry is “not failed”.

“MTEIERKFLVATFPDGELHAVPLRQGYLTTPTDSIELRLRQQGTEYFMTLKSEGGLSRQEYEIQIDVTQFEMLWPATEGRRVEKTRYSGKLPDGQLFELDVFAGHLSPLMLVEVEFLSEDAAQAFIPPPWFGEEVTEDKRYKNKALALSIP”: the protein production result was “not failed”.

In the case of “MEQDHVKVKKRVAFVLIDGLGDVTIPKLGYKTPLQAANIPNLDAIASAGINGLMDPVEVGLGCGSDTAHLSLMGYDPRVYYRGRGAFESMGAGLAMSPGDIAFKSNFATLDEKSGVVVSRRADRHFEEEGPILCAALDGLKLQSFPEYEVRVRYATEHRCGVVVKGPRLSGNISGTDPLKDNRLLLEAKPLDESEEATHTAKVVNELSREISRILVSHPVNAERAAQGKNIANLVLLRGCGIRIEVPPFHEKHGLWPCMVAPTKIIAGLGMSLGIDILEAPGATGDYRTLLTSKATAIANALSAPLNPCPNVFVPGEDGHKPGRSDGYDFGFLHIKAIDDAGHDKATMFKVRGLEAVDKAIRQLAKLLWQAESSTHYQYFLCVTGDHSTPVEYGDHSFEPVPFTMCRLRDFVSAVGGESAVLETSLDPFPLPTVVESGEDVTKQEEESGRREAPLAIGGDLVAELNEVAAARGCLGRFHGGEMMGVITNFLNLEV”, the protein production entry is given as “failed”.

Regarding “MIRTIQDLLNERVAIGKIVNTHGLKGEVKFFPYTNSEEIVKNLSSVVLYNSEKKAFYNLTVESVRRMNKLFLIRFKSIDTIEAAERIKGCEVFIKYEELPKLSEDEYYFYEILDCDVFYESGENVGKVVDIIETGSNDVLVVRKKKKETLIPMTKDCIVEIDKGAKKIIAKEMEWILEHHHHHH”, the protein production result is reported as “failed”.

On to “MDPFDAGQAQRGNGSTESSGREDREGEEAQWVGVLTHAVLAADDPANLGDSAPAEGGHDQMLEEWAAEEGQNPLEDRQEAVRRVNAWNQGELNLAMLRLTSLPPLPAGLHSLDASFNRLTSLPETLPDALNSLNVNGNQLVSLPALPAGLALLDVWSNRLTSLPETLPAALEGLNVGNNQLTSLPEALPARLESLDVSVNQLTSLPETLPASLGSLDVGVNQLTSLPETLPTSLGRLYLNDNQLTSLPTGLLTQLGAAAEVVVSGNPLPQEMLMNLDTIQSTDGYAGPRVVFDLSETHEDQWEDAAVAPFPLETVAAESLPEAVADWLNGDPKEGDPEVVAKWQSFAEEPGAQQYADFLNGLRNTVNSGNEGFQQGVANDLRQAAANPQLRAQYFQLALDANESCADRRTLTWNGMQTARLIANVENGLYDNNEGVAALVDLGRVMFRLEALGGIAREKVQSLRTGGTINNVDEIEVYLAYQATLRERLGLQHIAPDMNYFYDSHLTEEDIDRAETSVRSKEATGFADYLATDWKPWDDVVLRIEPEHHATMEEKLADALEEEFPGRLKQKLVEAGLIGAEADVVADAEREFGPQVSKDIAREIKGALRDTVLNKRGLSL”, for which the protein production entry is listed as “failed”.

Consider “MKLKRKILALLMAALLAVSLAGCGQTSQAPANPPAAPEAGTPTERTVTDMAGRTVTLPAEVKTVGTFGSIGVLNAFVETLSAGERLANEGSPSFVKSPTWEKYQYQFTPHIKNLKPFQGADSELLMENILAAKPDVCLTMSADLTEQLEKQGLNVVQLSWTKTEDVKECITLLGEVLNQQEVAADYLKYFDDMLAKAADLTKDIKDADKKTVVYGNVSKFSQPHVIAEWWIDKAGGISVTSEAMTKANKESLTYTLEDLLKWNPDVMFVASAAEKKEVLADARLGEITAVKNGAIYIVPRIAHVWGNRTTEQPLTIMWAMNKLYPEIVTDSQLAEDISYFYSHFFKYDFNADQLKEIMGK”, for which the protein production entry was “failed”.
